Results: PMC9897490
pKd: −log10 of the molar value.

Biological target: FtsZ (wild type, Caulobacter crescentus) (Caulobacter crescentus)
Experiment: BLI

FtsZ (wild type, Caulobacter crescentus) (Caulobacter crescentus), sequence (B8H080 whole entry): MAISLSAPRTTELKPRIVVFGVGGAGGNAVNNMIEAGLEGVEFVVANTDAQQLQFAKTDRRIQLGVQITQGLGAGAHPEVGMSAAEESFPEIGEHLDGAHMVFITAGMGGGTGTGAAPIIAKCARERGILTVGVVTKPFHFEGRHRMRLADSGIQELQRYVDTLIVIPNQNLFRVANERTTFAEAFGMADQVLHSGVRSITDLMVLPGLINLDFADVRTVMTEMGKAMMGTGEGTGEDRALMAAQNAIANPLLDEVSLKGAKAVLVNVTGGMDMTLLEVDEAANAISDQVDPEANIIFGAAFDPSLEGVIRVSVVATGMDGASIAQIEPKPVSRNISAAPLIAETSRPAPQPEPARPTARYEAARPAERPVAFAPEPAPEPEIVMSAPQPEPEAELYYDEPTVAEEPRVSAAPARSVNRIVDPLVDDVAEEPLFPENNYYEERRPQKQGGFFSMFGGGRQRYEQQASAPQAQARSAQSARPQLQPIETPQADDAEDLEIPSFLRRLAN

## MipZ-His6 (wild type) (enzyme)
  pKd: 4.96
